Test results from publication PMC2164959.

Molecular target: AU1-tagged codon-optimised HPV16 E5 mutant M1 (human papillomavirus type 16) (UniProt P06927)
Assay: co-IP; HEK-293T transfected, lysed 20-24 h after transfection in CHAPS buffer (0.2 M NaCl, 50 mM HEPES pH 7.5, 2% CHAPS); immunoprecipitation by the tag of E5 (anti-AU1, anti-HA or anti-GFP), protein G-sepharose, blot with anti-calnexin

B1: calnexin (natural protein)
chain: HDGHDDDVIDIEDDLDDVIEEVEDSKPDTTAPPSSPKVTYKAPVPTGEVYFADSFDRGTLSGWILSKAKKDDTDDEIAKYDGKWEVEEMKESKLPGDKGLVLMSRAKHHAISAKLNKPFLFDTKPLIVQYEVNFQNGIECGGAYVKLLSKTPELNLDQFHDKTPYTIMFGPDKCGEDYKLHFIFRHKNPKTGIYEEKHAKRPDADLKTYFTDKKTHLYTLILNPDNSFEILVDQSVVNSGNLLNDMTPPVNPSREIEDPEDRKPEDWDERPKIPDPEAVKPDDWDEDAPAKIPDEEATKPEGWLDDEPEYVPDPDAEKPEDWDEDMDGEWEAPQIANPRCESAPGCGVWQRPVIDNPNYKGKWKPPMIDNPSYQGIWKPRKIPNPDFFEDLEPFRMTPFSAIGLELWSMTSDIFFDNFIICADRRIVDDWANDGWGLKKAADGAAEPGVVGQMIEAAEERPWLWVVYILTVALPVFLVILFCCSGKKQTSGMEYKKTDAPQPDVKEEEEEKEEEKDKGDEEEEGEEKLEEKQKSDAEEDGGTVSQEEEDRKPKAEEDEILNRSPRNRKPRRE
  percent of calnexin co-precipitated, relative to wild type: 50%
